Assay results taken from patent US20180044393A1 (INSERM INSTITUT NATIONAL DE LA SANT ET DE LA RECHERCHE M …, published 2018).
Positions of bridges follow the written chain, without caps; N, C: chain ends. No end group written: not given here. *: point of attachment. 125I = [125I]*

Columns and labels:
Assay in all cases: 125I-OxA binding on CHO-S cells expressing the OX1R mutant
OX1R V121A = target: T1, OX1R V121A (human, UniProt O43613 1-425)
T1 construct: site-directed mutant (TM3) stably expressed in CHO-S cells; not shown: YFP from vector pEYFP-N2 fused at the C-terminus
T1 chain: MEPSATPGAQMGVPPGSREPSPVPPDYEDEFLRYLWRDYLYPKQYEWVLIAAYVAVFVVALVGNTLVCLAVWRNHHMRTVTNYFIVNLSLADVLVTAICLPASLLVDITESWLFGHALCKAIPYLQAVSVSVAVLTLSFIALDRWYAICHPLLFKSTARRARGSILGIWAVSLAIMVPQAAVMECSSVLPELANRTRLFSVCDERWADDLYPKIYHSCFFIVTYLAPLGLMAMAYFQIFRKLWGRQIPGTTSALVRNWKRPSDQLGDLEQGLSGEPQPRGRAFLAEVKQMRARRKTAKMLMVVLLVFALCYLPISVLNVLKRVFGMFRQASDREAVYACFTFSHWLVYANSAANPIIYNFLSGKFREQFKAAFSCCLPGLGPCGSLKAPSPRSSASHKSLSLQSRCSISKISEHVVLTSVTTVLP
Method: (§1) CHO—S cells expressing recombinant native or mutated OX1R were grown as previously described (El Firar et al., 2009) and maintained at 37° C. in a humidified 5% CO₂/air incubator. ¹²⁵I-orexia-A (74 TBq/mmol) was prepared as previously described (El Firar et al., 2009). […] Free peptides were removed by 2 cell washing cycles with PBS. […] Data were analyzed using the GraphPad software (http://www.graphpad.com).
(§2) All residues of OX1R fulfilling this condition were mutated to alanine by site-directed mutagenesis (Table II).

OX1R L320A = target: T2, OX1R L320A (human, UniProt O43613 1-425)
T2 construct: site-directed mutant (TM6) stably expressed in CHO-S cells; not shown: YFP from vector pEYFP-N2 fused at the C-terminus
T2 chain: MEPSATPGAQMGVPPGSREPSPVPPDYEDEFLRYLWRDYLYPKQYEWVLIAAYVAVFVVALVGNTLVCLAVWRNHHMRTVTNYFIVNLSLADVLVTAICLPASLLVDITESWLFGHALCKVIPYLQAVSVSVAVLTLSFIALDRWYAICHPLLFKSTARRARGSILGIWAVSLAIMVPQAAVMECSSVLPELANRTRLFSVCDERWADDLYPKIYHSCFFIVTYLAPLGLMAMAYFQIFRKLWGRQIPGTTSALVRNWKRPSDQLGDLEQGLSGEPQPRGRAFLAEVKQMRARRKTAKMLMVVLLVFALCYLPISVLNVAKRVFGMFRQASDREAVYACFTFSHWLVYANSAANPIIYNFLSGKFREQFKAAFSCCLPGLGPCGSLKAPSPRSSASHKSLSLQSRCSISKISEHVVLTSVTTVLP
Method: as §1, §2

OX1R N318A = target: T3, OX1R N318A (human, UniProt O43613 1-425)
T3 construct: site-directed mutant (TM6) stably expressed in CHO-S cells; not shown: YFP from vector pEYFP-N2 fused at the C-terminus
T3 chain: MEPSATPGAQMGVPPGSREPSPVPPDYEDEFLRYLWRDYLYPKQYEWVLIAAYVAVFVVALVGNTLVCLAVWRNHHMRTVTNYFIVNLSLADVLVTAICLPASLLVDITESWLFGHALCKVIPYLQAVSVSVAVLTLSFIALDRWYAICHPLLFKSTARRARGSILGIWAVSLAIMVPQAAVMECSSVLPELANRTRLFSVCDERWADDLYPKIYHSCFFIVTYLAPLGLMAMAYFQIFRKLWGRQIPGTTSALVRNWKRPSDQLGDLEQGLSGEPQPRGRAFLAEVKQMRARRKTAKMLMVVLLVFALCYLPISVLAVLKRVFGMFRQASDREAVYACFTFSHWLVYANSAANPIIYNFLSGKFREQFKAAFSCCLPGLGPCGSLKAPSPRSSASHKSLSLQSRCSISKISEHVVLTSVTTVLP
Method: as §1, §2

OX1R F220A = target: T4, OX1R F220A (human, UniProt O43613 1-425)
T4 construct: site-directed mutant (TM5) stably expressed in CHO-S cells; not shown: YFP from vector pEYFP-N2 fused at the C-terminus
T4 chain: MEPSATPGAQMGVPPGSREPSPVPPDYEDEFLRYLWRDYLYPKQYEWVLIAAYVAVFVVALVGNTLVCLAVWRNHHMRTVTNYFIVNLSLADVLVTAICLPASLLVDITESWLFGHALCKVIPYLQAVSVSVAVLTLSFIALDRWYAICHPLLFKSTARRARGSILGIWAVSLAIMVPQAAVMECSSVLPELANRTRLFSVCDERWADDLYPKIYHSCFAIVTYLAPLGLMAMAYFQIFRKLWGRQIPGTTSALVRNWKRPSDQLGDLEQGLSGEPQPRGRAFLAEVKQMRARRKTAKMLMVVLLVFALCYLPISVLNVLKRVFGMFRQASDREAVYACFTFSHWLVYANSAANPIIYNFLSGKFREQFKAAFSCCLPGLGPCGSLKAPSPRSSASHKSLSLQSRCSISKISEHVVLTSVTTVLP
Method: as §1, §2

OX1R C99A = target: T5, OX1R C99A (human, UniProt O43613 1-425)
T5 construct: site-directed mutant (TM2) stably expressed in CHO-S cells; not shown: YFP from vector pEYFP-N2 fused at the C-terminus
T5 chain: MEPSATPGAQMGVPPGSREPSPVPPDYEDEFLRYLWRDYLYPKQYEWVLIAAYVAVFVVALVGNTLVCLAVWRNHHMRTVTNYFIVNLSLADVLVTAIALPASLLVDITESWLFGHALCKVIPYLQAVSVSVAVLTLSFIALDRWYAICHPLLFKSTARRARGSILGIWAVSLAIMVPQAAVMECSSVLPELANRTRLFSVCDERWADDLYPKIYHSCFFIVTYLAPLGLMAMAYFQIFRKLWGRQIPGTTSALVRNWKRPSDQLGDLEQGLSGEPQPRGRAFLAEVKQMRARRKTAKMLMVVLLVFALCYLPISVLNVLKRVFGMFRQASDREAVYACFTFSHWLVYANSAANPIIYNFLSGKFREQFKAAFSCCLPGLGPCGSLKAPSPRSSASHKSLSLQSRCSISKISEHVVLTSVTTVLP
Method: as §1, §2

binding result (OX1R V121A): binds
binding result (OX1R L320A): binds
binding result (OX1R N318A): binds
binding result (OX1R F220A): binds
binding result (OX1R C99A): binds
Binder: QPLPDCCRQKTCSCRLY(125I)ELLHGAGNHAAGILTL (peptide, UniProt O43612 34-66, looked up, disulfide 6-12, 7-14; not fully specified (residue 1, C-terminus), mature; also called OxA) [125I-orexin-A]
